The values below come from patent publication US20260258115A1 (MAPP BIOPHARMACEUTICAL, published 2026).

For assay [1], the target named is RSV prefusion F (preF), DS-Cav1 (Respiratory syncytial virus, UniProt P03420 26-513). The assay is described as follows: BLI, IgG on anti-human IgG sensor, 100 nM antigen.
Assay [2] concerns the target RSV postfusion F (postF), F ΔFP (Respiratory syncytial virus, UniProt P03420 26-513). Description: BLI, IgG on anti-human IgG sensor, 100 nM antigen.
The next assay concerns the target RSV F on RSV-A2 virus (Respiratory syncytial virus, RSV-A2, UniProt P03420 26-574). Description: cell-based or functional assay.

B1: ADI-41607 (antibody, V domains shown)
VH: EVQLVESGPGLVKPSQTLSLTCTVSGGSINIGGYYWSWIRQHPEKGLEWIGYIYYSGTTYYNPSLESRVTISIDTSKNQFSLNLSSVTAADTAVYYCASVDQIGATRFDYWGQGTLVTVSS
VL: QPVLTQPRSVSGSPGQSVTLSCTGTSSDVGTYNYVSWYQHHPGKAPKLIIYDVNKRPSGVPDRFSGSKSGNTASLTISGLQAEDEADYYCCSYAGSYTLNYVFGTGTKLTVL
Take B1: the values for the Kd in assay [1] and in assay [2] were 4.24 nM and 0.709 nM, respectively. For the same molecule, in the assay with RSV F on RSV-A2 virus, the “Neutralization IC50 (RSV subtype A)” value is > 25 µg/mL.

B2: ADI-41586 (antibody, V domains shown)
VH: QVQLQQWGAGLLKPSETLSLTCAVYGGSFSGYSWSWIRQPPGKGLEWIGDIDHDGSTYYNSSLKSRVTMSIDTSKNQFSLKLSSVTAADTAVYYCARVGGNSGYWGQGTLVTVSS
VL: not shown
notes: also called Ab 860; Antibody Number 860
With B2, the Kd in assay [1] was found to be 0.538 nM; in assay [2], 0.779 nM. Further, the “Neutralization IC50 (RSV subtype A)” value with RSV F on RSV-A2 virus was 0.402 µg/mL.

B3: ADI-41604 (antibody, V domains shown)
VH: QVTLKESGAEVKKPGASVKVSCKASGYTFTGYYMHWVRQAPGQGLEWMGRINPNSGGTNYAQKFQGRVTMTRDTSISTAYMELSRLRSDDTAVYYCAREASRFGGFDYWGQGTLVTVSS
VL: DIVLTQSPSSLSASVGDRVTITCQASQDISNYLNWYQQKPGKAPKLLIYDASNLETGVPSRFSGSGSGTDFTFTISSLQPEDIATYYCQQYDNLLGYTFGQGTKVEIK
Regarding B3, the figures for the Kd in assay [1] and in assay [2] were 17.8 nM and 29.2 nM, respectively. In addition, the “Neutralization IC50 (RSV subtype A)” value with RSV F on RSV-A2 virus was > 25 µg/mL.

B4: ADI-41592 (antibody, V domains shown)
VH: EVQLVESGSELKKPGASVKVSCKASGYTFRTYVMNWVRQAPGQGLEWMGWINTNTGNPTYAQGFTGRFVFSLDTSVSTAYLQISSLKAEDTAVYYCARESIDDYDSSGYGRTFDYWGQGTLVTVSS
VL: SYELTQPPSVSVSPGQTASIPCSGDKVGKTYVYWYQQTPGQSPGLVIYQDTKRPSGIPERFSGSSSGNTATLTISGTQTMDEADYYCQAWDTSTASYVFGTGTKLTVL
notes: also called Ab 866; Antibody Number 866
B4: the Kd in assay [1] was determined as 3.74 nM; in assay [2], 0.44 nM. Moreover, in the assay with RSV F on RSV-A2 virus, the “Neutralization IC50 (RSV subtype A)” value was > 25 µg/mL.

B5: ADI-41583 (antibody, V domains shown)
VH: QVQLVQSGAEVKKPGSSVKVSCKASGGTFSRHTITWVRQAPGQGLEWMGRIAPIVGFANYAQKFQGRVTITADKSTSTAYMELRSLRSEDTAVYYCARRSEDYYGLDVWGQGTTVTVSS
VL: DIVMTQSPSSLSASVGDRVTITCQASQDISNYLNWYQQKPGKAPKLLIYEASNLETGVPSRFSGSGSGTDFTFTISSLQPEDIATYYCQQYDNLFGGGTKLEIK
Turning to B5, the Kd was determined as 0.664 nM in assay [1] and 0.381 nM in assay [2]. In addition, the “Neutralization IC50 (RSV subtype A)” value with RSV F on RSV-A2 virus was > 25 µg/mL.

B6: ADI-41605 (antibody, V domains shown)
VH: QVQLVESGPGLVKPSQTLSLTCSVSGGSISSDDHYWSWIRQHPGKGLEWIGYIYYSGYTNYNPSLKSRVTISVDTSKNQFSLRLSSVTAADTAVYYCARETDITIFGVVPVGYFDYWGQGTLVTVSS
VL: DIQVTQSPDSLAVSLGERATINCKSSQSILSSTNNKNFLAWYQQKPGQPPKLLLHWASTREFGVPDRFSGSGSGTEFTLTISSLQAEDVAVYYCQQYYTTPYTFGQGTKVEIK
notes: also called Ab 879; Antibody Number 879
Consider B6, for which the Kd in assay [1] was found to be 3.18 nM; in assay [2] it was 0.55 nM. Moreover, the “Neutralization IC50 (RSV subtype A)” value in the assay with RSV F on RSV-A2 virus is > 25 µg/mL.

B7: ADI-41588 (antibody, V domains shown)
VH: QVQLVESGPTLVKPTQTLTLTCTFSGFSLSTNGVGVAWIRQPPGKALEWLAIIYWDDDKRYSPSLKSRLTITKDTSKNQVVLTVTDMDPVDTATYYCAHTIGVPAATRFDYWGQGTLVTVSS
VL: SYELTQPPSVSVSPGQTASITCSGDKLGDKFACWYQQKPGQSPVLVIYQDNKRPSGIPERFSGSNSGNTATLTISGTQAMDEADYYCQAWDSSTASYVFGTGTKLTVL
On to B7, for which the Kd was found to be 3.33 nM in assay [1] and 0.505 nM in assay [2]. Besides, the “Neutralization IC50 (RSV subtype A)” value with RSV F on RSV-A2 virus was > 25 µg/mL.

B8: ADI-41587 (antibody, V domains shown)
VH: QVQLVQSGAGLLKPSETLSLTCAVYGGSFSGYSWSWIRQPPGKGLEWIGEINYSVSTSYNSSLKSRVSISVDTSKNQFSLKLTSVTAADTAVYYCARVGGAVADWGQGTLVTVSS
VL: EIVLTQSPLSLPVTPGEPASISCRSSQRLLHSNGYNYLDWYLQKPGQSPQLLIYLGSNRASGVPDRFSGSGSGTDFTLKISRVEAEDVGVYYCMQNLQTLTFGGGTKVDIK
In the case of B8, the Kd in assay [1] stood at 1.4 nM; in assay [2], 2.09 nM. The “Neutralization IC50 (RSV subtype A)” value with RSV F on RSV-A2 virus came out at 0.664 µg/mL.

B9: ADI-41606 (antibody, V domains shown)
VH: EVQLLESGPGLVKPSETLSLTCTVSGGSVSSGGYYYTWIRQPPGKGLEWIGYAFYSGDTNYNPSLKSRVTISVDTSKNQFSLKLTSVTAADTAVYYCASTYTFGASGFDFWGQGTLVTVSS
VL: DIVMTQSPSFMSASVGDRVTITCRASQGISNWLLWYQQKPGKAPKLLIYAASSLQSGVPSRFSGSRSGTDFTLTISSLQPEDFAIYYCQQANSFPLTFGQGTRLEIK
notes: also called Ab 880; Antibody Number 880
On to B9, for which the Kd worked out at 3.39 nM in assay [1] and 1.03 nM in assay [2]. The “Neutralization IC50 (RSV subtype A)” value in the assay with RSV F on RSV-A2 virus was > 25 µg/mL.

B10: ADI-41579 (antibody, V domains shown)
VH: QVQLVESGAEARKPGSSVKVSCKLSGGTFSTDPISWVRQAPGQGLEWMGRIIPLLGIANYAQKFQGRVTIIADKSTSTVYMELRNLRFEDTAVYFCARRGDGYYGMDVWGQGTTVTVSS
VL: QSVLTQPASVSGSPGQSITISCTGTSNDIGGYDYVSWYQQHPGKAPKLMIYDVHNRPSGVSNRFSGSKSGNTASLTISGLQAEDEADYYCSSFSDSGNLYVFGTGTKLTVL
Consider B10, for which the results for the Kd in assay [1] and in assay [2] were 0.471 nM and 0.36 nM, respectively. The “Neutralization IC50 (RSV subtype A)” value with RSV F on RSV-A2 virus came out at 0.209 µg/mL.

B11: ADI-41608 (antibody, V domains shown)
VH: QVQLVQSGDEVKKPGESLKISCKGSEHTFTNYWIAWVRQMPGKGLECMGVIWPDDSDTKYSPSFQGQVTISADKSINTAYLHLSSLRASDTAMYYCATSKFRTGFDFWGQGTLVTVSS
VL: NFMLTQPHSVSESPGKTVIISCTRSSGNIASNYVQWYQQRPGSSPTTVVYEDNQRPSGVPDRFSGSIDSSSNSASLTISGLKTEDEADYYCQSYDSSNPWVFGGGTKLTVL
As for B11, the Kd was determined as 1.93 nM in assay [1] and 0.285 nM in assay [2]. Further, the “Neutralization IC50 (RSV subtype A)” value in the assay with RSV F on RSV-A2 virus is > 25 µg/mL.

B12: ADI-41596 (antibody, V domains shown)
VH: QVQLQQWGAGLLKPSETLSLTCAVYGDSFSGYFWTWIRQPPGKGLEWIGEINLSGSTNYNPSLKSRVTILVDTSKNQFSLKLSSVTAADTAVYYCARGLHVSDDQDSSGYYFHPGSFDYWGQGTLVTVSS
VL: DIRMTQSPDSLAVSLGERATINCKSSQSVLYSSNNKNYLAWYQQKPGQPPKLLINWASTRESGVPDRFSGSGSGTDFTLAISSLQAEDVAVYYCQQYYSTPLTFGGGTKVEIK
notes: also called Ab 870; Antibody Number 870
As for B12, the Kd was 0.305 nM in assay [1] and 0.437 nM in assay [2]. In addition, in the assay with RSV F on RSV-A2 virus, the “Neutralization IC50 (RSV subtype A)” value turned out to be 0.0537 µg/mL.

B13: ADI-41593 (antibody, V domains shown)
VH: QVQLVQSGVEVKKPGESLKISCKGSGYSFTNYWIAWVRQMPGKGLEWMGIIYPGDSDTRYSPSFQGQVTISADKSISTAYVQWSSLKASDTAIYYCARGDILTNSGPDAFDIWGQGTMVTVSS
VL: DIQMTQSPSSFSASTGDRVTITCRASQAISSYLAWFQQKPGKAPKLLIYAASTLQSGVPSRFSGSGSGTDFTLTISCLQSEDFATYYCQQYYSYPLTFGGGTKVEIK
notes: also called Ab 867; Antibody Number 867
For B13, the figures for the Kd in assay [1] and in assay [2] were 1.83 nM and 0.53 nM, respectively. Besides, in the assay with RSV F on RSV-A2 virus, the “Neutralization IC50 (RSV subtype A)” value was > 25 µg/mL.

B14: ADI-41602 (antibody, V domains shown)
VH: EVQLQESGPGLVKPSETLSLTCTVSGGSLSGYYWSWIRQPPGKGLEWIGYIYHSGSTNYNPSLESRVTISVDTSKNQFSLKVNAVTAADTAVYYCAKVERLLRFDPWGQGTLVTVSS
VL: QSVLIQPASVSGSPGQSITISCIGSSSDVGGYNYVSWYQHYPGKAPKLMIYDVSNRPSGVSNRFSGSKSGNTASLTISGLQAEDEADYYCSSYTSSTSYVFGTGTKVTVL
notes: also called Ab 876; Antibody Number 876
Take B14: the Kd is 2.85 nM in assay [1] and 0.455 nM in assay [2]. Also, the “Neutralization IC50 (RSV subtype A)” value with RSV F on RSV-A2 virus was > 25 µg/mL.

B15: ADI-41600 (antibody, V domains shown)
VH: EVQLLESGGNMVQPGKSLRLSCAASGFTFSNYGMHWVRQAPGKGLEWVAVISKDGNNEHYADSVRARFTVSRDNSKNTLFLQMNSLRPEDTAVYYCAIGGLSGSYFGEYFQHWGRGTLVTVSS
VL: DIQMTQSPSSMSASLGDRVTITCRASQGISTWLAWYQQKPGEAPKLLIYAAFGLQSGVPSRFSGSGSGTDFTLTINNLQPEDFATYYCQQAISFPFTFGGGTKVEIK
notes: also called Ab 874; Antibody Number 874
Turning to B15, the Kd in assay [1] was 4.93 nM; in assay [2] it was 0.755 nM. The “Neutralization IC50 (RSV subtype A)” value with RSV F on RSV-A2 virus was > 25 µg/mL.

B16: ADI-41580 (antibody, V domains shown)
VH: QVQLQQWGAGLLKPSETLSLTCAVYGGSFSGYYWSWIRQPPGKGLEWIGEMNHSGGSNYNPSFKSRVTISVDTSKKYFSLNLSSVTAADTAIYYCARTPFYYESTGYYYYYYGMDVWGQGTTVTVSS
VL: DIVMTQTPDSLAVSLGERATINCKSSQSVSHSSNNKNYLSWYQQKPGQPPKLLIYWASIRESEAPDRFTGSGSGTDFTLTISSLQAEDVAVYYCQQYYTAPITFGQGTRLEIK
notes: also called Ab 854; Antibody Number 854
For B16, the values for the Kd in assay [1] and in assay [2] were 2.98 nM and 1.17 nM, respectively. Moreover, the “Neutralization IC50 (RSV subtype A)” value with RSV F on RSV-A2 virus came to 1.11 µg/mL.

B17: ADI-41581 (antibody, V domains shown)
VH: EVQLLESGSELKKPGASVKISCKTSGYTFTNYLMNWVRQAPGQGLEWMGWINTHTGNPTYAQDFTGRFVFSLDTSVNTAYLQISSLKAEDTAIYYCARDGLEAFSGYNGVDYWGQGTLVTVSS
VL: DIVMTQTPLSLPVTPGEPASISCRSSPSLLHSNGYNYLDWYLQKPGQSPQLLIYLGSTRASGVPDRFSGSGSGTDFTLRISRVEAEDVGVYYCMQALQIPLTFGQGTKLEIK
notes: also called Ab 855; Antibody Number 855
As for B17, the Kd came out at 2.77 nM in assay [1] and 0.361 nM in assay [2]. Besides, the “Neutralization IC50 (RSV subtype A)” value with RSV F on RSV-A2 virus is > 25 µg/mL.

B18: ADI-41603 (antibody, V domains shown)
VH: EVQLVESGGGLVKPGRSLRLSCTTSGFTFGDYAMSWFRQAPGKGLEWVGFIRSKPYGGATAYAASVRGRFTISNDDSKSIAYLQMESLKIEDTAVYYCARDYDDFFFYDYWGQGTLVTVSS
VL: DIRMTQSPATLSVSPGERATLSCRASENIYSNLAWYQQKPGQAPRLLIYGASTRATGLPARFSGSGSGTEFTLTISSLQSEDFAVYYCQQYNNWPAFGGGTKVEIK
notes: also called Ab 877; Antibody Number 877
Regarding B18, the Kd in assay [1] came out at 3.49 nM; in assay [2], 0.49 nM. In addition, the “Neutralization IC50 (RSV subtype A)” value with RSV F on RSV-A2 virus is > 25 µg/mL.

One may read the Kd as the concentration at which binding is half-saturated. The low end stands for a tighter complex, the high end for a looser complex.
